Source: US11161908 (CITY OF HOPE, dated 2021)

target: T1, commercial, recombinant extracellular domain of human BAFF-R (human, UniProt Q96RJ3 1-78); assay: Biacore analysis; antibody as loading sample, recombinant human BAFF-R ECD as sample
T1 construct: extracellular domain
Procedure: The chimeric anti-BAFF-R antibody C90 was humanized with several variants. The humanization process took into consideration and analysis of the variable region and specifically the CDRs of the chimeric antibody. From there, three variants for each heavy and light chain was developed with varying degrees of human-likeness ranging from 1 the most human to 3 the most conservative to the chimeric. The variants were combined to produce 9 variants. Biacore analysis was performed on each variant as well as the chimeric parental C90 to determine their equilibrium dissociation constant K_D. The antigen was commercial, recombinant extracellular domain of human BAFF-R.

Binder	Kd	koff	kon
humanized C90 variant HC1 + LC3 (antibody, V domains shown, also called Humanized HC1 + LC3; Hu90 HC-1 with Hu90 LC-3) VH: QVQLQESGPGLVKPSQTLSLTCTVSGDSITSGYWNWIRQHPGKGLEYIGYISYSGSTYYNPSLKSRVTISRDTSKNQFSLKLSSVTAADTAVYYCASPNYPFYAMDYWGQGTLVTVSS VL: DIVMTQSPSSLSASVGDRVTITCRASESVDNYGISFMNWFQQKPGKAPKLLIYAASNLGSGVPSRFSGSGSGTDFTLTISSLQPEDFATYYCQQSKEVPWTFGQGTKVEIKR	5 nM	0.0021 s⁻¹	410000 M⁻¹ s⁻¹
humanized C90 variant HC2 + LC1 (antibody, V domains shown, also called Humanized HC2 + LC1; Hu90 HC-2 with Hu90 LC-1) VH: EVQLQESGPGLVKPSQTLSLTCTVSGDSITSGYWNWIRQHPGKGLEYIGYISYSGSTYYNPSLKSRVTISRDTSKNQYSLKLSSVTAADTAVYYCASPNYPFYAMDYWGQGTLVTVSS VL: EIVLTQSPATLSLSPGERATLSCRASESVDNYGISFLNWFQQKPGQAPRLLIYAASNRATGIPARFSGSGSGTDFTLTISSLEPEDFAVYYCQQSKEVPWTFGGGTKVEIKR	2.6 nM	0.002 s⁻¹	770000 M⁻¹ s⁻¹
humanized C90 variant HC3 + LC1 (antibody, V domains shown, also called Humanized HC3 + LC1; Hu90 HC-3 with Hu90 LC-1) VH: EVQLQESGPGLVKPSETLSLTCSVSGDSITSGYWNWIRQPPGKGLEYIGYISYSGSTYYNPSLKSRVTISRDTSKNQYSLRLSSVTAADTALYYCASPNYPFYAMDYWGQGTRVTVSS VL: EIVLTQSPATLSLSPGERATLSCRASESVDNYGISFLNWFQQKPGQAPRLLIYAASNRATGIPARFSGSGSGTDFTLTISSLEPEDFAVYYCQQSKEVPWTFGGGTKVEIKR	3.8 nM	0.0031 s⁻¹	820000 M⁻¹ s⁻¹
humanized C90 variant HC1 + LC1 (antibody, V domains shown, also called Humanized HC1 + LC1; Hu90 HC-1 with Hu90 LC-1) VH: QVQLQESGPGLVKPSQTLSLTCTVSGDSITSGYWNWIRQHPGKGLEYIGYISYSGSTYYNPSLKSRVTISRDTSKNQFSLKLSSVTAADTAVYYCASPNYPFYAMDYWGQGTLVTVSS VL: EIVLTQSPATLSLSPGERATLSCRASESVDNYGISFLNWFQQKPGQAPRLLIYAASNRATGIPARFSGSGSGTDFTLTISSLEPEDFAVYYCQQSKEVPWTFGGGTKVEIKR	4 nM	0.0024 s⁻¹	610000 M⁻¹ s⁻¹
humanized C90 variant HC1 + LC2 (antibody, V domains shown, also called Humanized HC1 + LC2; Hu90 HC-1 with Hu90 LC-2) VH: QVQLQESGPGLVKPSQTLSLTCTVSGDSITSGYWNWIRQHPGKGLEYIGYISYSGSTYYNPSLKSRVTISRDTSKNQFSLKLSSVTAADTAVYYCASPNYPFYAMDYWGQGTLVTVSS VL: DIVLTQSPATLSLSPGERATLSCRASESVDNYGISFMNWFQQKPGQAPRLLIYAASNRATGIPARFSGSGSGTDFTLTISSLEPEDFAVYYCQQSKEVPWTFGGGTKVEIKR	3.7 nM	0.0023 s⁻¹	620000 M⁻¹ s⁻¹
humanized C90 variant HC3 + LC3 (antibody, V domains shown, also called Humanized HC3 + LC3; Hu90 HC-3 with Hu90 LC-3) VH: EVQLQESGPGLVKPSETLSLTCSVSGDSITSGYWNWIRQPPGKGLEYIGYISYSGSTYYNPSLKSRVTISRDTSKNQYSLRLSSVTAADTALYYCASPNYPFYAMDYWGQGTRVTVSS VL: DIVMTQSPSSLSASVGDRVTITCRASESVDNYGISFMNWFQQKPGKAPKLLIYAASNLGSGVPSRFSGSGSGTDFTLTISSLQPEDFATYYCQQSKEVPWTFGQGTKVEIKR	3.4 nM	0.0023 s⁻¹	680000 M⁻¹ s⁻¹
humanized C90 variant HC3 + LC2 (antibody, V domains shown, also called Humanized HC3 + LC2; Hu90 HC-3 with Hu90 LC-2) VH: EVQLQESGPGLVKPSETLSLTCSVSGDSITSGYWNWIRQPPGKGLEYIGYISYSGSTYYNPSLKSRVTISRDTSKNQYSLRLSSVTAADTALYYCASPNYPFYAMDYWGQGTRVTVSS VL: DIVLTQSPATLSLSPGERATLSCRASESVDNYGISFMNWFQQKPGQAPRLLIYAASNRATGIPARFSGSGSGTDFTLTISSLEPEDFAVYYCQQSKEVPWTFGGGTKVEIKR	3.1 nM	0.0037 s⁻¹	1.2e+06 M⁻¹ s⁻¹
humanized C90 variant HC2 + LC2 (antibody, V domains shown, also called Hu90 HC-2 with Hu90 LC-2) VH: EVQLQESGPGLVKPSQTLSLTCTVSGDSITSGYWNWIRQHPGKGLEYIGYISYSGSTYYNPSLKSRVTISRDTSKNQYSLKLSSVTAADTAVYYCASPNYPFYAMDYWGQGTLVTVSS VL: DIVLTQSPATLSLSPGERATLSCRASESVDNYGISFMNWFQQKPGQAPRLLIYAASNRATGIPARFSGSGSGTDFTLTISSLEPEDFAVYYCQQSKEVPWTFGGGTKVEIKR	3.6 nM	0.0022 s⁻¹	610000 M⁻¹ s⁻¹
chimeric anti-human BAFF-R antibody C90 (Clone 90 variable regions, human IgG1 constant regions) (antibody, V domains shown, also called chimeric C90; Chi90) VH: EVQLQESGPSLVKPSQTLSLTCSVTGDSITSGYWNWIRKFPGNKLEYMGYISYSGSTYYNPSLKSRISITRDTSKNQYYLQLNSVTPEDTATYYCASPNYPFYAMDYWGQGTSVTVSS VL: not shown		0.002 s⁻¹	990000 M⁻¹ s⁻¹

target: T2, human BAFF-R, endogenous, on human B-cell lines, primary lymphoma cells and normal B cells (human, UniProt Q96RJ3 1-184); assay: flow cytometry, Alexa Fluor 488-conjugated chimeric antibody on primary NHL patient samples
T2 construct: whole, on cells; also called BAFF-R-positive human MCL lines (Mino, JeKo-1, REC-1, JVM-13, Z-138); NHL lines JeKo-1, SU-DHL-6, Raji, RL

Binder	binding result
chimeric anti-human BAFF-R antibody C55 (Clone 55 variable regions, human IgG1 constant regions) (antibody, V domains shown, Conjugated to Alexa Fluor 488 in FIG. 1D (sites not given), also called chimeric C55; Chi55) VH: QVTLKESGPGILKPSQTLSLTCSFSGFSLSTSGMGVGWIRQPSGKGLEWLAHIWWDDDKYYNSSLKSHLTISKDTSRNQVFLKITSVDTADTATYYCARSFGYGLDYWGQGTTLTVSS VL: DIQMTQTTSSLSASLGDRVTISCSASQDISNYLNWYQQKPDGTVKLLIYYTSSLHSGVPSRFSGSGSGTDYSLTISSLEPEDIATYYCHQFSELPWTFGGGTKLEIK	binds

target: T2, human BAFF-R, endogenous, on human …; assay: flow cytometry, hybridoma supernatant at 1/10, 1/50 and 1/200 with anti-mouse IgG-APC on Mino; 293T as negative control
Text: Figure 8: FIG. 8 are flow cytometry results showing verification that selected hybridoma clones bind MCL cells. Binding of hybridoma Clone 53, 55, 67, and 90 supernatants (1/10, 1/50, and 1/200 dilutions) to Mino (mantle cell lymphoma) and 293T (negative control) cell lines assessed by flow cytometry performed with anti-mouse IgG-APC.

Binder	binding result
mouse monoclonal antibody from hybridoma Clone 55 (antibody, V domains shown, also called mouse mAb C55) VH: QVTLKESGPGILKPSQTLSLTCSFSGFSLSTSGMGVGWIRQPSGKGLEWLAHIWWDDDKYYNSSLKSHLTISKDTSRNQVFLKITSVDTADTATYYCARSFGYGLDYWGQGTTLTVSS VL: DIQMTQTTSSLSASLGDRVTISCSASQDISNYLNWYQQKPDGTVKLLIYYTSSLHSGVPSRFSGSGSGTDYSLTISSLEPEDIATYYCHQFSELPWTFGGGTKLEIK	binds
